These results are taken from patent US20140241987A1.

Assay [1] addresses α-synuclein fibrils (human) (UniProt P37840). Put plainly: SPR, BIAcore X100, fibrils immobilised on CM5, mAb injected.
Assay [2] has the same target. Put plainly: inhibition ELISA, fibrils against monomers.

In assay [1], Syn-O1 (antibody) came in with a Kd of 0.016 nM, a koff of 9.36e-05 s⁻¹ and an on-rate constant (kon) of 5.86e+06 M⁻¹ s⁻¹. The substance further returned a Fold Affinity to Fibrils in assay [2] of 12700 fold.
The corresponding values for Syn-O2 (antibody) are 0.0969 nM, 0.00127 s⁻¹, 1.31e+07 M⁻¹ s⁻¹ and 27300 fold.
In assay [1], Syn-O3 (antibody) returned a Kd of 0.171 nM, a koff of 0.000379 s⁻¹ and a kon of 2.22e+06 M⁻¹ s⁻¹. The substance further displayed a Fold Affinity to Fibrils in assay [2] of 11100 fold.
The corresponding values for Syn-O4 (antibody) are 0.138 nM, 0.000996 s⁻¹, 7.24e+06 M⁻¹ s⁻¹ and 6930 fold.
